Biological target: T1, interferon regulatory factor 3 (human (endogenous in THP-1)), Q14653
T1 chain: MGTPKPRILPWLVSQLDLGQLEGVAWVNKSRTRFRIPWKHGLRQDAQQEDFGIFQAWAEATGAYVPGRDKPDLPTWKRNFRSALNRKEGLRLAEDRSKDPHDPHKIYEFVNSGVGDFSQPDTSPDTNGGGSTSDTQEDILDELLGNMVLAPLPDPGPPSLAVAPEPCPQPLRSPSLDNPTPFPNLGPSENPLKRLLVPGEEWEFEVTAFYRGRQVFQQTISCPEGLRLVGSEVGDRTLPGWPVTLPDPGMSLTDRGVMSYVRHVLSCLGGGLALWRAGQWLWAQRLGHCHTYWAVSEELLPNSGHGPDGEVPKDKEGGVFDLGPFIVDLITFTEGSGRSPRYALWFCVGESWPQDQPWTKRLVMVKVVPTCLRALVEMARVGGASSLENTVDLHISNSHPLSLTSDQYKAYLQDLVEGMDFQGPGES
Assay: native gel or EMSA
Settings: remark: other sources report otherwise

B1: interferon regulatory factor 3, Q14653 1-427 (natural protein)
chain: MGTPKPRILPWLVSQLDLGQLEGVAWVNKSRTRFRIPWKHGLRQDAQQEDFGIFQAWAEATGAYVPGRDKPDLPTWKRNFRSALNRKEGLRLAEDRSKDPHDPHKIYEFVNSGVGDFSQPDTSPDTNGGGSTSDTQEDILDELLGNMVLAPLPDPGPPSLAVAPEPCPQPLRSPSLDNPTPFPNLGPSENPLKRLLVPGEEWEFEVTAFYRGRQVFQQTISCPEGLRLVGSEVGDRTLPGWPVTLPDPGMSLTDRGVMSYVRHVLSCLGGGLALWRAGQWLWAQRLGHCHTYWAVSEELLPNSGHGPDGEVPKDKEGGVFDLGPFIVDLITFTEGSGRSPRYALWFCVGESWPQDQPWTKRLVMVKVVPTCLRALVEMARVGGASSLENTVDLHISNSHPLSLTSDQYKAYLQDLVEGMDFQGPGES
In the case of B1, the stoichiometry N is reported as 2.

Reference: paper PMC10192046
